According to the supplement of paper PMC9233669:
This sample holds only a part of the variants without activity.

What was measured:
biotinyl-Phe-oxazolone = assay: self-aminoacylation, catalytic enhancement (BFO) (fold over background); higher = more active; k-Seq, kA / k0A0; sequences stand for … in GGGAAUGGAUCCACAUCUACGAAUUC…UUCACUGCAGACUUGACGAAGCUG
Method in brief: (§1)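 Mutagenized RNA pools with a 21-nt variable region (0.43 μM) reacted with each biotinyl-aminoacyl-oxazolone at 2–1250 μM. Reactions ran in 50 μL HEPES/NaCl/KCl/MgCl2/CaCl2 buffer with 5% acetonitrile, pH 6.9–7.0, for 90 minutes at room temperature. Streptavidin-captured RNA was quantified by triplicate qPCR and Illumina sequencing, and per-sequence fraction reacted was fit to a pseudo-first-order model with 1000 bootstraps. Catalytic enhancement is median kA divided by the uncatalyzed rate, the low-activity peak of a bimodal Gaussian fit.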

biotinyl-Trp-oxazolone = assay: self-aminoacylation, catalytic enhancement (BWO) (fold over background); higher = more active; k-Seq, kA / k0A0; sequences stand for … in GGGAAUGGAUCCACAUCUACGAAUUC…UUCACUGCAGACUUGACGAAGCUG
Method in brief: as §1

biotinyl-Met-oxazolone = assay: self-aminoacylation, catalytic enhancement (BMO) (fold over background); higher = more active; k-Seq, kA / k0A0; sequences stand for … in GGGAAUGGAUCCACAUCUACGAAUUC…UUCACUGCAGACUUGACGAAGCUG
Method in brief: as §1

biotinyl-Ile-oxazolone = assay: self-aminoacylation, catalytic enhancement (BIO) (fold over background); higher = more active; k-Seq, kA / k0A0; sequences stand for … in GGGAAUGGAUCCACAUCUACGAAUUC…UUCACUGCAGACUUGACGAAGCUG
Method in brief: as §1

biotinyl-Leu-oxazolone = assay: self-aminoacylation, catalytic enhancement (BLO) (fold over background); higher = more active; k-Seq, kA / k0A0; sequences stand for … in GGGAAUGGAUCCACAUCUACGAAUUC…UUCACUGCAGACUUGACGAAGCUG
Method in brief: as §1

biotinyl-Val-oxazolone = assay: self-aminoacylation, catalytic enhancement (BVO) (fold over background); higher = more active; k-Seq, kA / k0A0; sequences stand for … in GGGAAUGGAUCCACAUCUACGAAUUC…UUCACUGCAGACUUGACGAAGCUG
Method in brief: as §1

Sequence | self-aminoacylation (biotinyl-Phe-oxazolone) | self-aminoacylation (biotinyl-Trp-oxazolone) | self-aminoacylation (biotinyl-Met-oxazolone) | self-aminoacylation (biotinyl-Ile-oxazolone) | self-aminoacylation (biotinyl-Leu-oxazolone) | self-aminoacylation (biotinyl-Val-oxazolone)
AAGUUUCUUAAUAGUCGCAAG [Fam3.1 aminoacylation ribozyme variant] | 3.21 | 1.66 | 1.56 | 1.95 | 1.92 | 1.69
AAGUUUGAUAAAAGUCGCAAG [Fam3.1 aminoacylation ribozyme variant] | 2.15 | 1.46 | 1.64 | 1.51 | 1.13 | 1.22
AAGUUUGAUAAGAGUCGCAAG [Fam3.1 aminoacylation ribozyme variant] | 1.67 | 1.33 | 1.06 | 1.62 | 1.24 | 1.12
AAGUUUGAUAAUACUCGCAAG [Fam3.1 aminoacylation ribozyme variant] | 0.788 | 0.52 | 0.617 | 0.638 | 0.493 | 0.511
AAGUUUGAUAAUAGUCACAAG [Fam3.1 aminoacylation ribozyme variant] | 0.914 | 0.877 | 0.716 | 0.649 | 0.547 | 0.742
AAGUUUGAUAAUAGUCCCAAG [Fam3.1 aminoacylation ribozyme variant] | 0.838 | 0.489 | 0.47 | 0.613 | 0.423 | 0.515
AAGUUUGAUAAUAGUCGCAAA [Fam3.1 aminoacylation ribozyme variant] | 1.22 | 1.04 | 1.08 | 1.18 | 0.997 | 0.975
AAGUUUGAUAAUAGUCGCAAC [Fam3.1 aminoacylation ribozyme variant] | 1.27 | 0.736 | 0.773 | 0.926 | 0.718 | 0.809
AAGUUUGCAAAUAGCCGCAAG [Fam3.1 aminoacylation ribozyme variant] | 0.662 | 1.07 | 0.737 | 1.05 | 0.933 | 1.06
AAGUUUGCAAAUAGUAGCAAG [Fam3.1 aminoacylation ribozyme variant] | 1.62 | 0.923 | 1.03 | 1.27 | 1.07 | 0.939
AAGUUUGCAAAUAGUCGAAAG [Fam3.1 aminoacylation ribozyme variant] | 1.58 | 1.04 | 0.974 | 0.956 | 0.913 | 0.824
AAGUUUGCAAAUAGUCUCAAG [Fam3.1 aminoacylation ribozyme variant] | 0.972 | 0.81 | 1.12 | 0.987 | 0.747 | 0.772
AAGUUUGCAAAUUGUCGCAAG [Fam3.1 aminoacylation ribozyme variant] | 0.968 | 1.53 | 1.47 | 1.26 | 1.57 | 1.19
AAGUUUGCACAUAGUCGCAAG [Fam3.1 aminoacylation ribozyme variant] | 0.76 | 0.682 | 0.656 | 0.804 | 0.586 | 0.73
AAGUUUGCCAAUAGACGCAAG [Fam3.1 aminoacylation ribozyme variant] | 0.674 | 0.482 | 0.625 | 0.591 | 0.562 | 0.664
AAGUUUGCCAAUAGUCGAAAG [Fam3.1 aminoacylation ribozyme variant] | 0.727 | 1.5 | 1.44 | 1.05 | 0.911 | 1.02
AAGUUUGCCAAUAGUCGUAAG [Fam3.1 aminoacylation ribozyme variant] | 1.38 | 1.51 | 0.873 | 0.916 | 0.724 | 0.732
AAGUUUGCCAAUGGUCGCAAG [Fam3.1 aminoacylation ribozyme variant] | 0.499 | 1.01 | 1.02 | 0.987 | 1 | 0.852
AAGUUUGCCAGUAGUCGCAAG [Fam3.1 aminoacylation ribozyme variant] | 0.763 | 1.21 | 0.793 | 1.04 | 1.02 | 0.932
AAGUUUGCGAAUAGUCCCAAG [Fam3.1 aminoacylation ribozyme variant] | 1.03 | 0.863 | 1.14 | 1.06 | 0.951 | 0.844
AAGUUUGCGAAUAGUUGCAAG [Fam3.1 aminoacylation ribozyme variant] | 0.975 | 1.16 | 1.2 | 0.915 | 0.661 | 0.803
AAGUUUGCGAAUGGUCGCAAG [Fam3.1 aminoacylation ribozyme variant] | 5.78 | 1.47 | 0.97 | 0.908 | 0.728 | 1.11
AAGUUUGCUAAAAGUCGCAAA [Fam3.1 aminoacylation ribozyme variant] | 1.91 | 1.32 | 1.87 | 1.7 | 1.67 | 1.59
AAGUUUGCUAAAAGUCGCAAC [Fam3.1 aminoacylation ribozyme variant] | 0.796 | 1.01 | 1.1 | 1.08 | 1.25 | 0.948
AAGUUUGCUAAAAGUCGCAGG [Fam3.1 aminoacylation ribozyme variant] | 1.77 | 1.3 | 1.37 | 1.26 | 1.07 | 1.12
